Experimental data published in publication PMC4946879.

Tests used:
[1] = target: HIV-1 Gag CTD-SP1 (residues 281–377 of HIV-1 NL4-3 Gag, P373T) (HIV-1 NL4-3); assay: crystal structure; plate crystals of stacked flat hexagonal lattices; 0.1 M Bis-Tris propane, pH 7-8, 0.8-1.0 M LiSO4; sitting drops, 1:2 protein:precipitant; 3.27 Å
[2] = target: HIV-1 Gag CTD-SP1 (residues 281–377 of HIV-1 NL4-3 Gag, P373T) (HIV-1 NL4-3); assay: crystal structure; other crystal hits from screens with commercial and in-house precipitants; mature-like dimer form of the CTD with disordered SP1 tails; not deposited

Substance: HIV-1 Gag CTD-SP1 (residues 281–377 of HIV-1 NL4-3 Gag, P373T) (domain or fragment)
- stoichiometry N [1]: 6
- stoichiometry N [2]: 2
